The record followed here is patent US20060115482A1, “Modifications of histone proteins as indicators of cell proliferation and differentiation” (The Regents of the University of California, priority 2004, published 2006).

In this series the test system is H2B-S33. As to the kind of experiment: In vitro kinase assay (γ32P-ATP, SDS-PAGE, autoradiography, scintillation counting). Type of series: biochemical, Drosophila. To be noted: for Turnover values for phosphorylation of H2B-S33: 3 μg enzyme. On the procedure: Kinase reactions were programmed with 1 μg RAP74, 1 μg recombinant histone, 2 μg polynucleosomes, 2 μg histone octamers, or 300 ng histone peptide, and contained 400 ng endogenous TFIID or 250 ng recombinant TAF1 derivatives and 0.25 μCi γ^32P-ATP. Reactions were performed in 20 μl kinase buffer (25 mM Hepes (pH 7.6), 10% glycerol, and 400 mM NaCl) for 25 min at 25° C. Reaction products were analyzed by SDS-PAGE using 8%—(for recombinant proteins), 15%—(for histones), or 18% (for peptides) gels. After electrophoresis, gels were dried and exposed to X-ray film.
To quantify kinase reactions, reactions products were separated by SDS-PAGE and detected by coomassie blue staining. Radiolabeled H2B was detected by autoradiography, excised from the gel, and analyzed by scintillation counting.
To measure the kinase activity of TFIID, TAF1, CTK, and mutant CTK-derivatives, reaction products of in vitro kinase assays were separated by SDS-PAGE and stained with coomassie blue. Radiolabeled H2B, H2BT and controls were excised from the gel and incorporation of radioactivity was determined by scintillation counting. Turnover values for phosphorylation of H2B-S33 were determined by measuring incorporation of radiolabeled phosphate groups into H2B in the presence of 3 μg TAF1, TFIID, or CTK-derivatives and 3 μg H2B or 12 μg nucleosomes. The turnover values were: TFIID (nucleosomes: 3.3/sec; H2B: 2.6/sec); TAF1: (nucleosomes: 2.5/sec; H2B: 2.5/sec); CTK: (nucleosomes: 2.6/sec; H2B: 4.4/sec).

For the substance “TAF1: subunit of TFIID that has kinase activity; recombinant Flag-tagged Drosophila protein”, the “Turnover values for phosphorylation of H2B-S33” value (substrate 3 μg H2B) stood at 2.5 s⁻¹ and the “Turnover values for phosphorylation of H2B-S33” value (substrate 12 μg nucleosomes) amounted to 2.5 s⁻¹.
Consider “TAF1ΔCTK: TAF1 truncated by stop codon behind amino acid 1728, deleting the CTK downstream of the DBD”, for which, for the setting “autoradiography”, the “H2B phosphorylation in vitro (qualitative)” value was “does not phosphorylate H2B in vitro”. Also, the “kinase activity, % of the activity determined for TFIID, TAF1 and CTK” value (radiolabeled H2B, scintillation counting) is listed as “less than 0.1%”.
